In US20230160883A1:

What was measured:
[1] = molecular target: TZSV N protein (recombinant, expressed from pET30a-TZSV in E. coli BL21 (DE3)) (tomato zonate spot virus); experiment: indirect ELISA, negative of the row of FL484-1
[2] = molecular target: TZSV N protein (recombinant, expressed from pET30a-TZSV in E. coli BL21 (DE3)) (tomato zonate spot virus); experiment: indirect ELISA, negative of the row of FL484-2
[3] = molecular target: TZSV N protein (recombinant, expressed from pET30a-TZSV in E. coli BL21 (DE3)) (tomato zonate spot virus); experiment: indirect ELISA, negative of the row of FL484-3
[4] = molecular target: TZSV N protein (recombinant, expressed from pET30a-TZSV in E. coli BL21 (DE3)) (tomato zonate spot virus); experiment: indirect ELISA, negative of the row of FL484-4
[5] = molecular target: TZSV N protein (recombinant, expressed from pET30a-TZSV in E. coli BL21 (DE3)) (tomato zonate spot virus); experiment: indirect ELISA, negative of the row of FL484-5
[6] = molecular target: TZSV N protein (recombinant, expressed from pET30a-TZSV in E. coli BL21 (DE3)) (tomato zonate spot virus); experiment: indirect ELISA, negative of the row of FL484-6
[7] = molecular target: TZSV N protein (recombinant, expressed from pET30a-TZSV in E. coli BL21 (DE3)) (tomato zonate spot virus); experiment: indirect ELISA, negative of the row of FL484-7
[8] = molecular target: TZSV N protein (recombinant, expressed from pET30a-TZSV in E. coli BL21 (DE3)) (tomato zonate spot virus); experiment: indirect ELISA, negative of the row of FL484-8
[9] = molecular target: TZSV N protein (recombinant, expressed from pET30a-TZSV in E. coli BL21 (DE3)) (tomato zonate spot virus); experiment: indirect ELISA, negative of the row of FL484-9
[10] = molecular target: TZSV N protein (recombinant, expressed from pET30a-TZSV in E. coli BL21 (DE3)) (tomato zonate spot virus); experiment: indirect ELISA, negative of the row of FL484-10
[11] = molecular target: TZSV N protein (recombinant, expressed from pET30a-TZSV in E. coli BL21 (DE3)) (tomato zonate spot virus); experiment: indirect ELISA, negative of the row of FL484-11
[12] = molecular target: TZSV N protein (recombinant, expressed from pET30a-TZSV in E. coli BL21 (DE3)) (tomato zonate spot virus); experiment: indirect ELISA, negative of the row of FL484-12
[13] = molecular target: TZSV N protein (recombinant, expressed from pET30a-TZSV in E. coli BL21 (DE3)) (tomato zonate spot virus); experiment: indirect ELISA, negative of the row of FL484-13
[14] = molecular target: TZSV N protein (recombinant, expressed from pET30a-TZSV in E. coli BL21 (DE3)) (tomato zonate spot virus); experiment: indirect ELISA, negative of the row of FL484-14
[15] = molecular target: TZSV N protein (recombinant, expressed from pET30a-TZSV in E. coli BL21 (DE3)) (tomato zonate spot virus); experiment: indirect ELISA, negative of the row of FL484-15
[16] = molecular target: TZSV N protein (recombinant, expressed from pET30a-TZSV in E. coli BL21 (DE3)) (tomato zonate spot virus); experiment: indirect ELISA, negative of the row of FL484-16
[17] = molecular target: TZSV N protein (recombinant, expressed from pET30a-TZSV in E. coli BL21 (DE3)) (tomato zonate spot virus); experiment: indirect ELISA, negative of the row of FL484-17
[18] = molecular target: TZSV N protein (recombinant, expressed from pET30a-TZSV in E. coli BL21 (DE3)) (tomato zonate spot virus); experiment: indirect ELISA, negative of the row of FL484-18
[19] = molecular target: TZSV N protein (recombinant, expressed from pET30a-TZSV in E. coli BL21 (DE3)) (tomato zonate spot virus); experiment: indirect ELISA, negative of the row of FL484-19
[20] = molecular target: TZSV N protein (recombinant, expressed from pET30a-TZSV in E. coli BL21 (DE3)) (tomato zonate spot virus); experiment: indirect ELISA, negative of the row of FL484-20
[21] = molecular target: TZSV N protein (recombinant, expressed from pET30a-TZSV in E. coli BL21 (DE3)) (tomato zonate spot virus); experiment: indirect ELISA, negative of the row of FL484-21
[22] = molecular target: TZSV N protein (recombinant, expressed from pET30a-TZSV in E. coli BL21 (DE3)) (tomato zonate spot virus); experiment: indirect ELISA, negative of the row of FL484-22
[23] = molecular target: TZSV N protein (recombinant, expressed from pET30a-TZSV in E. coli BL21 (DE3)) (tomato zonate spot virus); experiment: indirect ELISA, negative of the row of FL484-23
[24] = molecular target: TZSV N protein (recombinant, expressed from pET30a-TZSV in E. coli BL21 (DE3)) (tomato zonate spot virus); experiment: indirect ELISA, negative of the row of FL484-24
[25] = molecular target: TZSV N protein (recombinant, expressed from pET30a-TZSV in E. coli BL21 (DE3)) (tomato zonate spot virus); experiment: indirect ELISA, negative of the row of FL484-25
[26] = molecular target: TZSV N protein (recombinant, expressed from pET30a-TZSV in E. coli BL21 (DE3)) (tomato zonate spot virus); experiment: indirect ELISA, negative of the row of FL484-26
[27] = molecular target: TZSV N protein (recombinant, expressed from pET30a-TZSV in E. coli BL21 (DE3)) (tomato zonate spot virus); experiment: indirect ELISA, negative of the row of FL484-27
[28] = molecular target: TZSV N protein (recombinant, expressed from pET30a-TZSV in E. coli BL21 (DE3)) (tomato zonate spot virus); experiment: indirect ELISA, negative of the row of FL484-28
[29] = molecular target: TZSV N protein (recombinant, expressed from pET30a-TZSV in E. coli BL21 (DE3)) (tomato zonate spot virus); experiment: indirect ELISA, negative of the row of FL484-29
[30] = molecular target: TZSV N protein (recombinant, expressed from pET30a-TZSV in E. coli BL21 (DE3)) (tomato zonate spot virus); experiment: indirect ELISA, negative of the row of FL484-30
[31] = molecular target: TZSV N protein (recombinant, expressed from pET30a-TZSV in E. coli BL21 (DE3)) (tomato zonate spot virus); experiment: indirect ELISA, negative of the row of FL484-31
[32] = molecular target: TZSV N protein (recombinant, expressed from pET30a-TZSV in E. coli BL21 (DE3)) (tomato zonate spot virus); experiment: indirect ELISA, negative of the row of FL484-32
[33] = molecular target: TZSV N protein (recombinant, expressed from pET30a-TZSV in E. coli BL21 (DE3)) (tomato zonate spot virus); experiment: indirect ELISA, negative of the row of FL484-33
[34] = molecular target: TZSV N protein (recombinant, expressed from pET30a-TZSV in E. coli BL21 (DE3)) (tomato zonate spot virus); experiment: indirect ELISA, negative of the row of FL484-34
[35] = molecular target: TZSV N protein (recombinant, expressed from pET30a-TZSV in E. coli BL21 (DE3)) (tomato zonate spot virus); experiment: indirect ELISA, negative of the row of FL484-35
[36] = molecular target: TZSV N protein (recombinant, expressed from pET30a-TZSV in E. coli BL21 (DE3)) (tomato zonate spot virus); experiment: indirect ELISA, negative control of the row of M210045
[37] = molecular target: TZSV N protein (recombinant, expressed from pET30a-TZSV in E. coli BL21 (DE3)) (tomato zonate spot virus); experiment: indirect ELISA, negative control of the row of M210046
[38] = molecular target: TZSV N protein (recombinant, expressed from pET30a-TZSV in E. coli BL21 (DE3)) (tomato zonate spot virus); experiment: indirect ELISA, negative control of the row of M210047
[39] = molecular target: TZSV N protein (recombinant, expressed from pET30a-TZSV in E. coli BL21 (DE3)) (tomato zonate spot virus); experiment: indirect ELISA, negative control of the row of M210048

“negative control (mouse serum before immunization)” gave an OD450 [1] of 0.169 OD, an OD450 [2] of 0.208 OD and an OD450 [3] of 0.14 OD. It also gave an OD450 [4] of 0.23 OD, an OD450 [5] of 0.237 OD and an OD450 [6] of 0.24 OD. For the same substance, the OD450 [7] was 0.24 OD, the OD450 [8] was 0.196 OD and the OD450 [9] was 0.171 OD. The OD450 [10] was 0.158 OD, the OD450 [11] was 0.052 OD and the OD450 [12] was 0.157 OD. The OD450 [13] was 0.155 OD, the OD450 [14] was 0.19 OD and the OD450 [15] was 0.187 OD. It also gave an OD450 [16] of 0.209 OD, an OD450 [17] of 0.186 OD and an OD450 [18] of 0.179 OD. The OD450 [19] was 0.164 OD, the OD450 [20] was 0.236 OD and the OD450 [21] was 0.18 OD. The OD450 [22] was 0.163 OD, the OD450 [23] was 0.232 OD and the OD450 [24] was 0.203 OD. For the same substance, the OD450 [25] was 0.234 OD, the OD450 [26] was 0.161 OD and the OD450 [27] was 0.197 OD. For the same substance, the OD450 [28] was 0.229 OD, the OD450 [29] was 0.215 OD and the OD450 [30] was 0.265 OD. For the same substance, the OD450 [31] was 0.172 OD, the OD450 [32] was 0.194 OD and the OD450 [33] was 0.221 OD. For the same substance, the OD450 [34] was 0.193 OD, the OD450 [35] was 0.19 OD and the OD450 [36] was 0.137 OD. For the same substance, the OD450 [37] was 0.146 OD, the OD450 [38] was 0.137 OD and the OD450 [39] was 0.125 OD.
